In the RNAGym collection of RNA variant scans (doi:10.1021/acssynbio.7b00057):

B1: Pistol ribozyme (parent)
chain: GGGUCGUUGUUCCAUAAUCGCGUGGAUAUGGCACGCAAGUUUCUACCGGGCACCGUAAAUGUCCGACUGGAGCCGUUCGGGCGGCUAUAAACAGACCUCAGGCCCGAAGCGUGGCGGCACCUGCCGCCGGUGGUAAAAAAGAUCGGAAGAGCACACGUCU

Variants of: B1
Assay: aptazyme ON/OFF ratio, guanine; higher = stronger switching; co-transcriptional cleavage with and without guanine
For GGGUCGAGUGCCAAUAAUCGCGUGGAUAUGGCACGCAAGUUUCUACCGGGCACCGUAAAUGUCCGACUGGAGCCGUUCGGGCGGCUAUAAACAGACCUCAGGCCCGAAGCGUGGCGGCACCUGCCGCCGGUGGUAAAAAAGAUCGGAAGAGCACACGUCU, the “aptazyme ON/OFF ratio” value was 1.12.
In the case of GGGUCGAGUGCCGAUAAUCGCGUGGAUAUGGCACGCAAGUUUCUACCGGGCACCGUAAAUGUCCGACUGGAGCCGUUCGGGCGGCUAUAAACAGACCUCAGGCCCGAAGCGUGGCGGCACCUGCCGCCGGUGGUAAAAAAGAUCGGAAGAGCACACGUCU, the “aptazyme ON/OFF ratio” value is reported as 1.07.
With GGGUCGAGUGCCUAUAAUCGCGUGGAUAUGGCACGCAAGUUUCUACCGGGCACCGUAAAUGUCCGACUGGAGCCGUUCGGGCGGCUAUAAACAGACCUCAGGCCCGAAGCGUGGCGGCACCUGCCGCCGGUGGUAAAAAAGAUCGGAAGAGCACACGUCU the “aptazyme ON/OFF ratio” value was 1.05.
With GGGUCGAGUGGCCAUAAUCGCGUGGAUAUGGCACGCAAGUUUCUACCGGGCACCGUAAAUGUCCGACUGGAGCCGUUCGGGCGGCUAUAAACAGACCUCAGGCCCGAAGCGUGGCGGCACCUGCCGCCGGUGGUAAAAAAGAUCGGAAGAGCACACGUCU the “aptazyme ON/OFF ratio” value was 1.38.
In the case of GGGUCGAGUGGUAAUAAUCGCGUGGAUAUGGCACGCAAGUUUCUACCGGGCACCGUAAAUGUCCGACUGGAGCCGUUCGGGCGGCUAUAAACAGACCUCAGGCCCGAAGCGUGGCGGCACCUGCCGCCGGUGGUAAAAAAGAUCGGAAGAGCACACGUCU, the “aptazyme ON/OFF ratio” value is reported as 1.38.
With GGGUCGAGUGGUGAUAAUCGCGUGGAUAUGGCACGCAAGUUUCUACCGGGCACCGUAAAUGUCCGACUGGAGCCGUUCGGGCGGCUAUAAACAGACCUCAGGCCCGAAGCGUGGCGGCACCUGCCGCCGGUGGUAAAAAAGAUCGGAAGAGCACACGUCU the “aptazyme ON/OFF ratio” value was 1.3.
With GGGUCGAGUGGUUAUAAUCGCGUGGAUAUGGCACGCAAGUUUCUACCGGGCACCGUAAAUGUCCGACUGGAGCCGUUCGGGCGGCUAUAAACAGACCUCAGGCCCGAAGCGUGGCGGCACCUGCCGCCGGUGGUAAAAAAGAUCGGAAGAGCACACGUCU the “aptazyme ON/OFF ratio” value was 1.21.
For GGGUCGAGUGCUCAUAAUCGCGUGGAUAUGGCACGCAAGUUUCUACCGGGCACCGUAAAUGUCCGACUGGAGCCGUUCGGGCGGCUAUAAACAGACCUCAGGCCCGAAGCGUGGCGGCACCUGCCGCCGGUGGUAAAAAAGAUCGGAAGAGCACACGUCU, the “aptazyme ON/OFF ratio” value was 1.04.
For GGGUCGAGUGCGCAUAAUCGCGUGGAUAUGGCACGCAAGUUUCUACCGGGCACCGUAAAUGUCCGACUGGAGCCGUUCGGGCGGCUAUAAACAGACCUCAGGCCCGAAGCGUGGCGGCACCUGCCGCCGGUGGUAAAAAAGAUCGGAAGAGCACACGUCU, the “aptazyme ON/OFF ratio” value was 1.16.
In the case of GGGUCGAGUGGAGAUAAUCGCGUGGAUAUGGCACGCAAGUUUCUACCGGGCACCGUAAAUGUCCGACUGGAGCCGUUCGGGCGGCUAUAAACAGACCUCAGGCCCGAAGCGUGGCGGCACCUGCCGCCGGUGGUAAAAAAGAUCGGAAGAGCACACGUCU, the “aptazyme ON/OFF ratio” value is reported as 1.13.
In the case of GGGUCGAGUGGAUAUAAUCGCGUGGAUAUGGCACGCAAGUUUCUACCGGGCACCGUAAAUGUCCGACUGGAGCCGUUCGGGCGGCUAUAAACAGACCUCAGGCCCGAAGCGUGGCGGCACCUGCCGCCGGUGGUAAAAAAGAUCGGAAGAGCACACGUCU, the “aptazyme ON/OFF ratio” value is reported as 1.21.
With GGGUCGAGUGGAAAUAAUCGCGUGGAUAUGGCACGCAAGUUUCUACCGGGCACCGUAAAUGUCCGACUGGAGCCGUUCGGGCGGCUAUAAACAGACCUCAGGCCCGAAGCGUGGCGGCACCUGCCGCCGGUGGUAAAAAAGAUCGGAAGAGCACACGUCU the “aptazyme ON/OFF ratio” value was 1.12.
In the case of GGGUCGAGUUAAUAUAAUCGCGUGGAUAUGGCACGCAAGUUUCUACCGGGCACCGUAAAUGUCCGACUGGAGCCGUUCGGGCGGCUAUAAACAGACCUCAGGCCCGAAGCGUGGCGGCACCUGCCGCCGGUGGUAAAAAAGAUCGGAAGAGCACACGUCU, the “aptazyme ON/OFF ratio” value is reported as 1.25.
In the case of GGGUCGAGUUAAGAUAAUCGCGUGGAUAUGGCACGCAAGUUUCUACCGGGCACCGUAAAUGUCCGACUGGAGCCGUUCGGGCGGCUAUAAACAGACCUCAGGCCCGAAGCGUGGCGGCACCUGCCGCCGGUGGUAAAAAAGAUCGGAAGAGCACACGUCU, the “aptazyme ON/OFF ratio” value is reported as 1.38.
In the case of GGGUCGAGUUAAAAUAAUCGCGUGGAUAUGGCACGCAAGUUUCUACCGGGCACCGUAAAUGUCCGACUGGAGCCGUUCGGGCGGCUAUAAACAGACCUCAGGCCCGAAGCGUGGCGGCACCUGCCGCCGGUGGUAAAAAAGAUCGGAAGAGCACACGUCU, the “aptazyme ON/OFF ratio” value is reported as 1.53.
With GGGUCGAGUGGCAAUAAUCGCGUGGAUAUGGCACGCAAGUUUCUACCGGGCACCGUAAAUGUCCGACUGGAGCCGUUCGGGCGGCUAUAAACAGACCUCAGGCCCGAAGCGUGGCGGCACCUGCCGCCGGUGGUAAAAAAGAUCGGAAGAGCACACGUCU the “aptazyme ON/OFF ratio” value was 1.16.
For GGGUCGAGUGGCUAUAAUCGCGUGGAUAUGGCACGCAAGUUUCUACCGGGCACCGUAAAUGUCCGACUGGAGCCGUUCGGGCGGCUAUAAACAGACCUCAGGCCCGAAGCGUGGCGGCACCUGCCGCCGGUGGUAAAAAAGAUCGGAAGAGCACACGUCU, the “aptazyme ON/OFF ratio” value was 1.24.
In the case of GGGUCGAGUGGCGAUAAUCGCGUGGAUAUGGCACGCAAGUUUCUACCGGGCACCGUAAAUGUCCGACUGGAGCCGUUCGGGCGGCUAUAAACAGACCUCAGGCCCGAAGCGUGGCGGCACCUGCCGCCGGUGGUAAAAAAGAUCGGAAGAGCACACGUCU, the “aptazyme ON/OFF ratio” value is reported as 1.19.
In the case of GGGUCGAGUGCGGAUAAUCGCGUGGAUAUGGCACGCAAGUUUCUACCGGGCACCGUAAAUGUCCGACUGGAGCCGUUCGGGCGGCUAUAAACAGACCUCAGGCCCGAAGCGUGGCGGCACCUGCCGCCGGUGGUAAAAAAGAUCGGAAGAGCACACGUCU, the “aptazyme ON/OFF ratio” value is reported as 1.13.
In the case of GGGUCGAGUGCGAAUAAUCGCGUGGAUAUGGCACGCAAGUUUCUACCGGGCACCGUAAAUGUCCGACUGGAGCCGUUCGGGCGGCUAUAAACAGACCUCAGGCCCGAAGCGUGGCGGCACCUGCCGCCGGUGGUAAAAAAGAUCGGAAGAGCACACGUCU, the “aptazyme ON/OFF ratio” value is reported as 1.11.
In the case of GGGUCGAGUGCGUAUAAUCGCGUGGAUAUGGCACGCAAGUUUCUACCGGGCACCGUAAAUGUCCGACUGGAGCCGUUCGGGCGGCUAUAAACAGACCUCAGGCCCGAAGCGUGGCGGCACCUGCCGCCGGUGGUAAAAAAGAUCGGAAGAGCACACGUCU, the “aptazyme ON/OFF ratio” value is reported as 1.22.
For GGGUCGAGUGCAAAUAAUCGCGUGGAUAUGGCACGCAAGUUUCUACCGGGCACCGUAAAUGUCCGACUGGAGCCGUUCGGGCGGCUAUAAACAGACCUCAGGCCCGAAGCGUGGCGGCACCUGCCGCCGGUGGUAAAAAAGAUCGGAAGAGCACACGUCU, the “aptazyme ON/OFF ratio” value was 1.14.
With GGGUCGAGUGCAUAUAAUCGCGUGGAUAUGGCACGCAAGUUUCUACCGGGCACCGUAAAUGUCCGACUGGAGCCGUUCGGGCGGCUAUAAACAGACCUCAGGCCCGAAGCGUGGCGGCACCUGCCGCCGGUGGUAAAAAAGAUCGGAAGAGCACACGUCU the “aptazyme ON/OFF ratio” value was 1.16.
With GGGUCGAGUGCAGAUAAUCGCGUGGAUAUGGCACGCAAGUUUCUACCGGGCACCGUAAAUGUCCGACUGGAGCCGUUCGGGCGGCUAUAAACAGACCUCAGGCCCGAAGCGUGGCGGCACCUGCCGCCGGUGGUAAAAAAGAUCGGAAGAGCACACGUCU the “aptazyme ON/OFF ratio” value was 1.13.
With GGGUCGAGUUAGCAUAAUCGCGUGGAUAUGGCACGCAAGUUUCUACCGGGCACCGUAAAUGUCCGACUGGAGCCGUUCGGGCGGCUAUAAACAGACCUCAGGCCCGAAGCGUGGCGGCACCUGCCGCCGGUGGUAAAAAAGAUCGGAAGAGCACACGUCU the “aptazyme ON/OFF ratio” value was 1.38.
For GGGUCGAGUUAACAUAAUCGCGUGGAUAUGGCACGCAAGUUUCUACCGGGCACCGUAAAUGUCCGACUGGAGCCGUUCGGGCGGCUAUAAACAGACCUCAGGCCCGAAGCGUGGCGGCACCUGCCGCCGGUGGUAAAAAAGAUCGGAAGAGCACACGUCU, the “aptazyme ON/OFF ratio” value was 1.59.
With GGGUCGAGUUACCAUAAUCGCGUGGAUAUGGCACGCAAGUUUCUACCGGGCACCGUAAAUGUCCGACUGGAGCCGUUCGGGCGGCUAUAAACAGACCUCAGGCCCGAAGCGUGGCGGCACCUGCCGCCGGUGGUAAAAAAGAUCGGAAGAGCACACGUCU the “aptazyme ON/OFF ratio” value was 2.05.
For GGGUCGAGUGGUCAUAAUCGCGUGGAUAUGGCACGCAAGUUUCUACCGGGCACCGUAAAUGUCCGACUGGAGCCGUUCGGGCGGCUAUAAACAGACCUCAGGCCCGAAGCGUGGCGGCACCUGCCGCCGGUGGUAAAAAAGAUCGGAAGAGCACACGUCU, the “aptazyme ON/OFF ratio” value was 1.36.
In the case of GGGUCGAGUGGGCAUAAUCGCGUGGAUAUGGCACGCAAGUUUCUACCGGGCACCGUAAAUGUCCGACUGGAGCCGUUCGGGCGGCUAUAAACAGACCUCAGGCCCGAAGCGUGGCGGCACCUGCCGCCGGUGGUAAAAAAGAUCGGAAGAGCACACGUCU, the “aptazyme ON/OFF ratio” value is reported as 1.35.
With GGGUCGAGUGGACAUAAUCGCGUGGAUAUGGCACGCAAGUUUCUACCGGGCACCGUAAAUGUCCGACUGGAGCCGUUCGGGCGGCUAUAAACAGACCUCAGGCCCGAAGCGUGGCGGCACCUGCCGCCGGUGGUAAAAAAGAUCGGAAGAGCACACGUCU the “aptazyme ON/OFF ratio” value was 1.38.
For GGGUCGAGUGCUGAUAAUCGCGUGGAUAUGGCACGCAAGUUUCUACCGGGCACCGUAAAUGUCCGACUGGAGCCGUUCGGGCGGCUAUAAACAGACCUCAGGCCCGAAGCGUGGCGGCACCUGCCGCCGGUGGUAAAAAAGAUCGGAAGAGCACACGUCU, the “aptazyme ON/OFF ratio” value was 1.47.
With GGGUCGAGUGCUUAUAAUCGCGUGGAUAUGGCACGCAAGUUUCUACCGGGCACCGUAAAUGUCCGACUGGAGCCGUUCGGGCGGCUAUAAACAGACCUCAGGCCCGAAGCGUGGCGGCACCUGCCGCCGGUGGUAAAAAAGAUCGGAAGAGCACACGUCU the “aptazyme ON/OFF ratio” value was 1.05.
In the case of GGGUCGAGUGCUAAUAAUCGCGUGGAUAUGGCACGCAAGUUUCUACCGGGCACCGUAAAUGUCCGACUGGAGCCGUUCGGGCGGCUAUAAACAGACCUCAGGCCCGAAGCGUGGCGGCACCUGCCGCCGGUGGUAAAAAAGAUCGGAAGAGCACACGUCU, the “aptazyme ON/OFF ratio” value is reported as 1.1.
For GGGUCGAGUGGGAAUAAUCGCGUGGAUAUGGCACGCAAGUUUCUACCGGGCACCGUAAAUGUCCGACUGGAGCCGUUCGGGCGGCUAUAAACAGACCUCAGGCCCGAAGCGUGGCGGCACCUGCCGCCGGUGGUAAAAAAGAUCGGAAGAGCACACGUCU, the “aptazyme ON/OFF ratio” value was 1.16.
In the case of GGGUCGAGUGGGUAUAAUCGCGUGGAUAUGGCACGCAAGUUUCUACCGGGCACCGUAAAUGUCCGACUGGAGCCGUUCGGGCGGCUAUAAACAGACCUCAGGCCCGAAGCGUGGCGGCACCUGCCGCCGGUGGUAAAAAAGAUCGGAAGAGCACACGUCU, the “aptazyme ON/OFF ratio” value is reported as 0.953.
In the case of GGGUCGAGUGGGGAUAAUCGCGUGGAUAUGGCACGCAAGUUUCUACCGGGCACCGUAAAUGUCCGACUGGAGCCGUUCGGGCGGCUAUAAACAGACCUCAGGCCCGAAGCGUGGCGGCACCUGCCGCCGGUGGUAAAAAAGAUCGGAAGAGCACACGUCU, the “aptazyme ON/OFF ratio” value is reported as 1.24.
